PMC1525162 (BMC Pharmacology, 2006)
“Also recorded” adds a separate entry of the source. Bridge positions count the residues as written; N and C are the ends. Ends that are not written are not given here. Peptide text beside a SMILES is read from it.

Columns and labels:
[1] = biological target: wild type CLR-RAMP1 (transiently transfected HEK293T-RAMP1 cells) (Homo sapiens, UniProt O60894+Q16602); assay: cAMP generation, wild type CLR; assay type: cell-based
[2] = system: wild type and L24A, L34A, L24A,L34A CLR-RAMP1 (HEK293T-RAMP1 cells); assay: cAMP generation, wild type and leucine mutant CLRs compared
[3] = system: L24A, L34A and L24A,L34A CLR-RAMP1 heterodimers versus wild type; assay: Competition/saturation binding, leucine mutant CLRs compared with wild type; parameters: species or system human; details: L34A, L24A,L34A vs wild type CLR
Description: (§1) A crude cell membrane preparation was prepared as previously described. Briefly, HEK293T-RAMP1 membranes were prepared by scraping and transferring cells to a 50 mL conical tube using cold HBSS followed with two washings by centrifugation at 1000 × g using cold HBSS. The intact cell pellet was resuspended in 10 mL of 0.25 M sucrose containing a protease inhibitor cocktail consisting of 10μg/mL benzamidine, 10μg/mL leupeptin, and 20μg/mL phenylmethysulfonylfluoride. The cells were disrupted by freezing followed by Dounce homogenization of the thawed suspension using 20 strokes from a loose fitting (B) pestle. This mixture was then centrifuged at 1260 × g for 5 min at 4°C. Buffer A (20 mM HEPES, pH 7.5, 1.4 mM EGTA, 12.5 mM MgCl2, 10μg/mL benzamidine, 10μg/mL leupeptin, and 20μg/mL phenylmethysulfonylfluoride) was added to the supernatant and centrifuged again at 30,000 × g for 15 min at 4°C. The resultant pellet was kept, resuspended in buffer A then centrifuged once more at 30,000 × g for 15 min at 4°C. The final crude membrane pellet was resuspended in buffer A containing 10% glycerol and stored in aliquots at -70°C until used for radioligand binding. Protein concentrations were measured using the method of Bradford.
The radioligand binding protocol used for this study was performed as previously described. […] Binding was stopped by filtering the membranes though Whatman GF/C glass fiber filters, followed by 5 – 5 mL washes with cold buffer B (20 mM HEPES, pH 7.5, 1.4 mM EGTA, 12.5 mM MgCl2) to remove any unbound drug. Amounts of total and non-specific radiolabel bound to cell membranes were calculated from radioactive counts remaining on the glass fiber filters.

[4] = biological target: wild type CLR-RAMP1 heterodimer (HEK293T-RAMP1 membranes) (Homo sapiens, UniProt O60894+Q16602); assay: Competition radioligand binding, wild type CLR; details: compared to Ki of CGRP
Description: as §1, with “The final crude membrane pellet was resuspended in buffer A containing 10% glycerol and stored in aliquots at -70°C until used for radioligand binding.” left out
The radioligand binding protocol used for this study was performed as previously described. […] Amounts of total and non-specific radiolabel bound to cell membranes were calculated from radioactive counts remaining on the glass fiber filters.

CGRP receptor = details: cited from earlier work
Description: Briefly, this 37 amino acid neuropeptide can be divided into two distinct domains based upon its binding and agonistic properties for the receptor. […] Specifically, loss of the disulfide bridge connecting amino acids 2 and 7 negates all biological activity of the endogenous neuropeptide.

[5] = biological target: CLR-RAMP1 heterodimer, wild type calcitonin-like receptor (CLR) with receptor-activity-modifying protein-1 (RAMP1) (UniProt Q16602); assay: radioligand binding; saturation binding: increasing [125I-Tyr]CGRP(8–37) on crude membranes of transiently transfected HEK293T-RAMP1 cells, 37°C, buffer A (20 mM HEPES pH 7.5, […] EGTA, 12.5 mM MgCl2, protease inhibitors) plus 0.1% BSA, 1 μM CGRP for non-specific binding, filtration on GF/C filters
[6] = biological target: CLR-RAMP1 heterodimer with the L34A CLR mutant (UniProt Q16602); assay: as above
[7] = biological target: CLR-RAMP1 heterodimer with the L24A,L34A CLR double mutant (UniProt Q16602); assay: as above
[8] = biological target: CLR-RAMP1 heterodimer with the L24A CLR mutant (UniProt Q16602); assay: as above
[9] = biological target: T1, CLR-RAMP1 heterodimer with the L24A,L34A CLR double mutant, Q16602
T1 chain 1: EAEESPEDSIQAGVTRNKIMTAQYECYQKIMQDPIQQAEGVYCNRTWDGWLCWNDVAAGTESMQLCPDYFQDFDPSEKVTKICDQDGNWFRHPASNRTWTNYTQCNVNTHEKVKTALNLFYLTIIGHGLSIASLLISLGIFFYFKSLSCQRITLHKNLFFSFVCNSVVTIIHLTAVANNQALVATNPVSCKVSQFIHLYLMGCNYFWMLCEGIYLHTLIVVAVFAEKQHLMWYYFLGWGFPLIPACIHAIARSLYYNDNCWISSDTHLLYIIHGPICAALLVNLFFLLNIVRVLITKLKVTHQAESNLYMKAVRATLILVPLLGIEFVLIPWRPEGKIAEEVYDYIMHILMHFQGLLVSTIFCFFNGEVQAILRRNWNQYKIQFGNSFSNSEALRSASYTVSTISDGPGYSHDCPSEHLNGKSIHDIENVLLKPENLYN
T1 chain 2: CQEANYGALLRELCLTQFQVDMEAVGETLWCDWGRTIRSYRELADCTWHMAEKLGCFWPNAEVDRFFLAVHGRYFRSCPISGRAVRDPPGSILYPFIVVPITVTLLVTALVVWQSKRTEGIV

[10] = biological target: T2, CLR-RAMP1 heterodimer with the L34A CLR mutant, Q16602
T2 chain 1: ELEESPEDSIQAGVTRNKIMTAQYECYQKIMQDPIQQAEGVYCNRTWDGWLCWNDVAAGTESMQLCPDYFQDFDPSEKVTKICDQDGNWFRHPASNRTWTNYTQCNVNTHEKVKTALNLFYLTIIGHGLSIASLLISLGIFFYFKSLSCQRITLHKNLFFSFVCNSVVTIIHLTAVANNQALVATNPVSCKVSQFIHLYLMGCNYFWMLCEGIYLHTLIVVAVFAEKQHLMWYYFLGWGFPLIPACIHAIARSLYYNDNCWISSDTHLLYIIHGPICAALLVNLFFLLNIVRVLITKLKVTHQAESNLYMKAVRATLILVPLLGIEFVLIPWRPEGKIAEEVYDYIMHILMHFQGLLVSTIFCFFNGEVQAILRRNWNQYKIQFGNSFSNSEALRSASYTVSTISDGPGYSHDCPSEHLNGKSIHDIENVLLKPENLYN
T2 chain 2: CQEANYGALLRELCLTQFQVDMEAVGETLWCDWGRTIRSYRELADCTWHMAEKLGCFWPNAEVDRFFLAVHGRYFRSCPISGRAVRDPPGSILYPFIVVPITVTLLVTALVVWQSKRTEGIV

[11] = biological target: T3, CLR-RAMP1 heterodimer, wild type calcitonin-like receptor (CLR) with receptor-activity-modifying protein-1 (RAMP1), Q16602
T3 chain 1: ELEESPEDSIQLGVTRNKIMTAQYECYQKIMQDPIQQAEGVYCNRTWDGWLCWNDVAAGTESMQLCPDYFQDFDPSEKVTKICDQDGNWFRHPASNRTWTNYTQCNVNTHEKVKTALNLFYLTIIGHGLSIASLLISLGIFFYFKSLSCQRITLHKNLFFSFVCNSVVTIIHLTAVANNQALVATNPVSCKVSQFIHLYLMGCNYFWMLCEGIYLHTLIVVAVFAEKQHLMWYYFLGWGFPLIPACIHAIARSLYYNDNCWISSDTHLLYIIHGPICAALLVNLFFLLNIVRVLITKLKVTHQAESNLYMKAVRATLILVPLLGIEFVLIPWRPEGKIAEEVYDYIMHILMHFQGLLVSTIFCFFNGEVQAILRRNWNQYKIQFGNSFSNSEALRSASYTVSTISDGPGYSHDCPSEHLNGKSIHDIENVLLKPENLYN
T3 chain 2: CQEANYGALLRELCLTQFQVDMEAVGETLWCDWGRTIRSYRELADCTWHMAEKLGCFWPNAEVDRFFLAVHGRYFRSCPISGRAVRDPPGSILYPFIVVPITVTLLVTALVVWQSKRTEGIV

[12] = biological target: T4, CLR-RAMP1 heterodimer with the L24A CLR mutant, Q16602
T4 chain 1: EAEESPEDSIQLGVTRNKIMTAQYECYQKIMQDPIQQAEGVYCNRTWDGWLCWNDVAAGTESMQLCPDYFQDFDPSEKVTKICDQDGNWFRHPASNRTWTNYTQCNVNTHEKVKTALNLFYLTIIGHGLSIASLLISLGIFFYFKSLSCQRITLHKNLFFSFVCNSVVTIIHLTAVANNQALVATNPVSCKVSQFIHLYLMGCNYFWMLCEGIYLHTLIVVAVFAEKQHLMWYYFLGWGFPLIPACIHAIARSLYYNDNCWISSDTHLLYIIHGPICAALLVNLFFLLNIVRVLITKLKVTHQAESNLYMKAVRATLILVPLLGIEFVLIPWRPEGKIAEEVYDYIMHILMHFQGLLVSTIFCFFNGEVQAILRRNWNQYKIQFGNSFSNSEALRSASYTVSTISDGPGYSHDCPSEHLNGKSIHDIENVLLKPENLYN
T4 chain 2: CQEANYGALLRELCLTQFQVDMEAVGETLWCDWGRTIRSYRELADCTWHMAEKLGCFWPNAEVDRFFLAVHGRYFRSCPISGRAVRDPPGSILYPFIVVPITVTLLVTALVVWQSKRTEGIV

[13] = biological target: T1, CLR-RAMP1 heterodimer with the …; assay: radioligand binding; competition: increasing unlabeled peptide against specific [125I-Tyr]CGRP(8–37) binding on crude membranes of transiently transfected HEK293T-RAMP1 cells, same buffer as the saturation binding; Ki from IC50 by the method of Cheng and Prusoff
[14] = biological target: T2, CLR-RAMP1 heterodimer with the L34A CLR …; assay: as above
[15] = biological target: T3, CLR-RAMP1 heterodimer, wild type …; assay: as above
[16] = biological target: T4, CLR-RAMP1 heterodimer with the L24A CLR …; assay: as above

## CC(C)C[C@H](NC(=O)CNC(=O)[C@H](C)NC(=O)[C@H](CC(C)C)NC(=O)[C@H](CCCNC(=N)N)NC(=O)[C@H](Cc1c[nH]cn1)NC(=O)[C@@H](NC(=O)[C@@H](NC(=O)[C@@H]1CSSC[C@H](NC(=O)[C@H](C)N)C(=O)N[C@@H](CC(=O)O)C(=O)N[C@@H]([C@@H](C)O)C(=O)N[C@@H](C)C(=O)N[C@@H]([C@@H](C)O)C(=O)N1)C(C)C)[C@@H](C)O)C(=O)N[C@@H](CC(C)C)C(=O)N[C@@H](CO)C(=O)N[C@@H](CCCNC(=N)N)C(=O)N[C@@H](CO)C(=O)O [CGRP(1–19)] (H-ACDTATCVTHRLAGLLSRS-OH; disulfide 2-7 (inferred); N-terminus assumed)
[1]; CGRP(1–36) compared with CGRP, CGRP(1–19) compared with CGRP(1–36) and CGRP
  maximal cAMP response: appreciably less
[1]; compared to CGRP
  cAMP potency compared with CGRP, wild type: considerably less; also recorded: significantly less
[2]; L24A, L34A, L24A,L34A vs wild type CLR
  cAMP potency at leucine mutants compared with wild type: no different; also recorded: no significant potency differences
[3]
  affinity at leucine mutants compared with wild type: analogous to values calculated for all leucine CLR mutations
[4]
  affinity for wild type CLR compared with CGRP: significant loss of CGRP(1–19) affinity

## CGRP(8–37)
CGRP receptor; N-terminal truncated peptide
  CGRP receptor affinity and activity: effective CGRP receptor antagonist having a high affinity for the receptor but devoid of any biological activity in itself
[2]; 1μM CGRP(8–37) preincubated 30 min before 10μM CGRP(1–36), wild type and leucine CLR mutants
  antagonism of cAMP response to CGRP(1–36): abolished the activity of 10μM CGRP(1–36); also recorded: blocked to basal levels

## [125I-Tyr]CGRP(8–37) (peptide)
[5]
  Kd: 0.9 nM
[6]
  Kd: 9 nM
[7]
  Kd: 9 nM
[8]
  Kd: 9 nM

## des-F37-CGRP: CGRP with deletion of the C-terminal phenylalanine at position 37 (ACDTATCVTHRLAGLLSRSGGVVKNNFVPTNVGSKA-NH2; disulfide 2-7 (inferred); ends not checked; UniProt P06881 83-119, looked up, variant F37*)
CGRP receptor; not due to disruption of ligand structure
  affinity for native receptor compared with endogenous neuropeptide: affinity loss

## ACDTATCVTHRLAGLLSRS (modifications not checked) [CGRP(1–19)]
[9]
  EC50 of cAMP generation in transiently transfected HEK293T-RAMP1 cells: 1600 nM
[10]
  EC50 of cAMP generation in transiently transfected HEK293T-RAMP1 cells: 2200 nM
[11]
  EC50 of cAMP generation in transiently transfected HEK293T-RAMP1 cells: 2100 nM
[12]
  EC50 of cAMP generation in transiently transfected HEK293T-RAMP1 cells: 2400 nM
[13]
  Ki: > 10000 nM
[14]
  Ki: > 10000 nM
[15]
  Ki: > 10000 nM
[16]
  Ki: > 10000 nM
